Results from patent US20180327746, “Alpha-AMYLASE-BINDING NUCLEIC ACID MOLECULE AND USE THEREOF” (NEC Solution Innovators, Ltd., published 2018).

T1: alpha-amylase (Homo sapiens, UniProt P0DUB6 P0DUB6:16-511)
T1 sequence: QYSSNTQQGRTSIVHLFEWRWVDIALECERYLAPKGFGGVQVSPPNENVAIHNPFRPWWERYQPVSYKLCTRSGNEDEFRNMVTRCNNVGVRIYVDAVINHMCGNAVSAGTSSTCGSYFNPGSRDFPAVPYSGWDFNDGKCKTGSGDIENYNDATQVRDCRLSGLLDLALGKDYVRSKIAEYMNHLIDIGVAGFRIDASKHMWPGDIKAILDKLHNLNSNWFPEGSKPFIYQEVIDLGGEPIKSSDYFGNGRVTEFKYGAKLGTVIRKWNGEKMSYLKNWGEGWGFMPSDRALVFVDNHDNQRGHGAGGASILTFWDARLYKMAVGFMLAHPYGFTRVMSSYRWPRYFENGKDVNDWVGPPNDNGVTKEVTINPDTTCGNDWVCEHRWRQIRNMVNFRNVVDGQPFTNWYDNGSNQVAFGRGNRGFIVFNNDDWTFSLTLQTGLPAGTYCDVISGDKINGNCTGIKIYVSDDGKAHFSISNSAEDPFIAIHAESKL

T2: chromogranin A (CgA) (Homo sapiens, UniProt P10645 P10645:19-457)
T2 sequence: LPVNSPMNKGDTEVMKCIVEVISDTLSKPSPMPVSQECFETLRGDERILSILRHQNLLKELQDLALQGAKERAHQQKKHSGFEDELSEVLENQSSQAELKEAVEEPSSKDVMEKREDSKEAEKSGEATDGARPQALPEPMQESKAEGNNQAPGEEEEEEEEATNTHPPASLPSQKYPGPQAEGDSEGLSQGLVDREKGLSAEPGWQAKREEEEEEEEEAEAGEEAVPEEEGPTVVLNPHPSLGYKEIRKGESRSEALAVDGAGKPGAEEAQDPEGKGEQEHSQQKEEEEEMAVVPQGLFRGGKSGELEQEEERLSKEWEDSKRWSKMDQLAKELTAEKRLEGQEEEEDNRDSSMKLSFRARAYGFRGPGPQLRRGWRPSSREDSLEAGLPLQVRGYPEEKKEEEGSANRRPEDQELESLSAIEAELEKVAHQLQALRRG

B1: AML1243KR8m2s49Fw_s20 (ssDNA)
DNA: TACCTTAACGCCGCCTATTGCTATGAGTAGTGTTTGTAGGTCTGGCAAAAAAAAAAAAAAAAAAAA
modifications: KS9 modified T (formula 1) at underlined T, i.e. T 3' of the 5' primer region
B2: AML1243KR8m1s65_FW_s15 (ssDNA)
DNA: TAACGCCGCCTATTGTGAACGACGTGAATAGTGTTTGTGGGTCCGGAGTTGCACCCGAAAAAAAAAAAAAAAAAAAA
modifications: KS9 modified T (formula 1) at underlined T, i.e. T 3' of the 5' primer region
B3: Amy_258KK10R8m3 (ssDNA)
DNA: GGTTACGCCCAGGACACATTTCAGAGCGTAAACAGTCCTGGTTGGCAAATGTGTAAGCTCGGTCTCCTCGGATAATCAAAAAAAAAAAAAAAAAAAA
modifications: KK10 modified T (formula 2) at double-underlined T, i.e. T 3' of the 5' primer region
B4: AML1243KR8m4 (ssDNA)
DNA: GGATACCTTAACGCCGCCTATTGATTCTCTGTGACTAGTGTTTGTAGGTCGCAGAGTTGCACCCGTCTCGAAATCAAAAAAAAAAAAAAAAAAAA
modifications: KS9 modified T (formula 1) at underlined T, i.e. T 3' of the 5' primer region
B5: AML2243KR8m3 (ssDNA)
DNA: GGATACCTTAACGCCGCCTATTGGTGTCACTAGTGTTTGTCGGTGCCAGCAAGGAGTTGCACCCGTCTCGAAATCAAAAAAAAAAAAAAAAAAAA
modifications: KS9 modified T (formula 1) at underlined T, i.e. T 3' of the 5' primer region
B6: TYE665-AML1243KR8m2 (ssDNA)
DNA: GGATACCTTAACGCCGCCTATTGCTATGAGTAGTGTTTGTAGGTCTGGCATGCGAGTTGCACCCGTCTCGAAATC
modifications: KS9 modified T (formula 1) at underlined T, i.e. T 3' of the 5' primer region
B7: TYE665-AML1243KR8m3 (ssDNA)
DNA: GGATACCTTAACGCCGCCTATTGCGAGGTGTGGCTAGTCGTTATAGGTCCACCGAGTTGCACCCGTCTCGAAATC
modifications: KS9 modified T (formula 1) at underlined T, i.e. T 3' of the 5' primer region
B8: TYE665-Amy_258KK10R8m2 (ssDNA)
DNA: GGTTACGCCCAGGACACATTTCATTGATGGCATACTAAGGGTCGAGGAATTCGTAAGCTCGGTCTCCTCGGATAATC
modifications: KK10 modified T (formula 2) at double-underlined T, i.e. T 3' of the 5' primer region

Key:
[1] = target: T1, alpha-amylase; assay: SPR; SPR buffer with 1 mM MgCl2, pH 7.4; Chi2 24.85; conditions: tags: none stated; commercial human alpha-amylase, Lee Biosolutions; label: 3' poly(dA)20 captured on biotin-poly(dT)20
Procedure: (§1) Biotinylated poly(dT) at 5 μmol/L was injected to a flow cell of the sensor chip using ultrapure water (DDW), and the binding was allowed to proceed until the signal intensity (RU: Resonance Unit) reached about 900 RU. The biotinylated poly(dT) was prepared by biotinylating the 5′ end of 20-mer deoxythymidine. Then, the poly(dA)-added aptamer at 200 nmol/L was injected to the flow cell of the chip using an SPR buffer at a flow rate of 25 μL/min for 80 seconds, and the binding was allowed to proceed until the signal intensity reached about 800 RU. […] With 0 seconds being the start of the injection, the mean value of signal intensities from 115 seconds to 125 seconds was determined. […] Then, the value (B/A) obtained by dividing the protein binding measured value (B) by the aptamer immobilization measured value (A) was determined as a relative value (Relative Unit).
(§2) The binding ability of the aptamers was analyzed by SPR in the same manner as in Example 1, except that the concentration of the α-amylase in the specimen was set to a plurality of values. The concentration was set to 20 nmol/L, 10 nmol/L, 5 nmol/L, 2.5 nmol/L, and 1.25 nmol/L. Then, from the results obtained by the SPR analysis, the kinetic parameter and the chi-squared value were calculated.

[2] = target: T1, alpha-amylase; assay: SPR; SPR buffer with 1 mM MgCl2, pH 7.4; Chi2 5.18; conditions: tags: none stated; commercial human alpha-amylase, Lee Biosolutions; label: 3' poly(dA)20 captured on biotin-poly(dT)20
Procedure: as §1, §2

[3] = target: T1, alpha-amylase; assay: SPR; 400 nM amylase, 1 mM MgCl2, pH 7.4; conditions: tags: none stated; commercial human alpha-amylase, Lee Biosolutions; label: 3' poly(dA)20 captured on biotin-poly(dT)20
Procedure: The analysis of the binding ability was carried out using a ProteON XPR36 (BioRad) in accordance with its instructions for use.
First, as a sensor chip designed specifically for the ProteON, a streptavidin-immobilized chip (trade name: ProteOn NLC Sensor Chip, BioRad) was set in the ProteON XPR36. Biotinylated poly(dT) at 5 μmol/L was injected to a flow cell of the sensor chip using ultrapure water (DDW), and the binding was allowed to proceed until the signal intensity (RU: Resonance Unit) reached about 900 RU. The biotinylated poly(dT) was prepared by biotinylating the 5′ end of 20-mer deoxythymidine. Then, the poly(dA)-added aptamer at 200 nmol/L was injected to the flow cell of the chip using an SPR buffer at a flow rate of 25 μL/min for 80 seconds, and the binding was allowed to proceed until the signal intensity reached about 800 RU. […] Subsequently, the specimen was injected using the SPR buffer at a flow rate of 50 μL/min for 120 seconds, followed by washing performed by flowing the SPR buffer under the same conditions for 300 seconds. The concentration of the human α-amylase in the specimen was set to 400 nmol/L. Signal intensity measurement was performed concurrently with the injection of the specimen and the washing with the SPR buffer. With 0 seconds being the start of the injection, the mean value of signal intensities from 115 seconds to 125 seconds was determined. […] Then, the value (B/A) obtained by dividing the protein binding measured value (B) by the aptamer immobilization measured value (A) was determined as a relative value (Relative Unit).

[4] = target: T1, alpha-amylase; assay: capillary electrophoresis; 200 nM aptamer, 2 uM amylase, 1 mM MgCl2; conditions: tags: none stated; commercial human alpha-amylase, Lee Biosolutions; label: 5' TYE665
Procedure: (§3) Reaction solutions containing the labeled aptamer (SEQ ID NO: 1) were prepared. Each of the reaction solutions was subjected to CAE under the following conditions. The reaction solution was caused to migrate while separating the components therefrom, and the fluorescence at a maximum absorption wavelength (665 nm) of the fluorescent substance was measured. As the reaction solutions, the following four types of reaction solutions were used: a reaction solution 1 containing the labeled aptamer only; a reaction solution 2 containing the labeled aptamer and the α-amylase; a reaction solution 3 containing the labeled aptamer and the saliva; and a reaction solution 4 containing the labeled aptamer as the negative control and the saliva. In each of the reaction solutions, the concentration of the labeled aptamer was 200 nmol/L. In the reaction solution 2, the concentration of the α-amylase was 2 μmol/L. In the reaction solutions 3 and 4, the concentration of the saliva was 10%. The reminder of each of the reaction solutions was a buffer solution. The composition of the buffer solution was as follows: 40 mmol/L HEPES (pH 7.5), 125 mmol/L NaCl, 5 mmol/L KCl, and 1 mmol/L MgCl₂.
(§4) Preparation of the reaction solution 2 and the binding ability analysis by CAE were carried out in the same manner as in the above item (3), except that the labeled aptamers (SEQ ID NOs: 1, 2, 3, and 19) were used. Further, in order to examine the specificity of the labeled aptamers to the α-amylase, the binding ability analysis by CAE was performed in the same manner as in the case where the above-described reaction solution 2 was used, except that, instead of the α-amylase, human chromogranin A (CgA, recombinant full length protein, Creative BioMart, #CHGA-26904TH) or human IgA (secretory, Biomedicals, LLC-Cappel Products, #55905), each having a His-tag fused at the N terminus were used.

[5] = target: T2, chromogranin A (CgA); assay: capillary electrophoresis specificity control; conditions: tags: N-terminal His-tag; full length, Creative BioMart CHGA-26904TH; label: 5' TYE665
Procedure: as §3, §4

Binder | binding result [3] | binding result [4] | binding result [5] | other results
B1 | – | – | – | Kd [1]: 4.23 nM
B2 | – | – | – | Kd [2]: 0.447 nM
B3 | binds | – | – | –
B4 | binds | – | – | –
B5 | binds | – | – | –
B6 | – | binds | no binding | –
B7 | – | binds | no binding | –
B8 | – | binds | no binding | –
